A word on the stoichiometry N: it is a count of units in the complex or per binding partner.

The record followed here is publication PMC3784749.

This experiment addresses glutathione S-transferase from Schistosoma japonicum (Schistosoma japonicum). Briefly: SAXS; GST alone in 20 mM phosphate, 80 mM NaCl, pH 8.0, 20 °C; shape reconstruction (GASBOR, DAMAVER) superimposed on crystal structure 1UA5.

“glutathione S-transferase from Schistosoma japonicum (enzyme)” gave a stoichiometry N of 2.
